Measured values as given in the RNAGym collection of RNA variant scans (doi:10.7554/elife.90254).

B1: OR4K15 (parent)
chain: GUUAACGGUCAUAGGCCAUGGAAACUAGGAGCACCAUUUCGCUGCCAGUGAAGAAAUGAACAAAGAAAAUCUGGGCCAGGCAGGCAUCAAAAGAAAUAGUCUUGCGCUCAACCAGAAAGUCUGUAAUCAUUUUAAGGGUA

Variants of: B1
Test: self-cleavage, relative activity (ratio to wild type); higher = more cleavage; in vitro, sequencing; the parent is a self-cleaving ribozyme

| Variant | self-cleavage |
| --- | --- |
| GUUAACGGUCAUAGGCCAUGGAAACUAGGAGCACCAUUUCGCUGCCAGUGAAGAAAUGAACAAAGAAAAUCUGGGCCAGGCAGGCAUCAAAAGAAAUAGUCUUGCGCUCAACCAGAAAGUCUGUAAUCAACUUAAGGGUA | 1.75 |
| GUUAACGGUCAUAGGCCUUGGAAACUAGGAGCACCAUUUCGCUGCCAGUGAAGAAAUGAGCAAAGAAAAUCUGGGCCAGGCAGGCAUCAAAAGAAAUAGUCUUGCGCUCAACCAGAAAGUCUGUAAUCAUUUUAAGGGUA | 0.68 |
| GUUAACGGUCAUAGGCCAUGGAAACUAGGAGCACCAUUUCGCUGCCAGUGAAGAAAUGAACAAAGAAAAUCUGGGCCAGGCAGGCAUCAAAAGUAACAGUCUUGCGCUCAACCAGAAAGUCUGUAAUCAUUUUAAGGGUA | 1.31 |
| GUUAACGGUCAUAGGCCAUGGAAACUAGGAGCACCAUUUCGCUGCCAGUGAAGAAAUGAACAAAGAAAAUCUGGGCCAGGCAGGCAUCAAAAGAAAUCGUCUUGCGCUCAACCAGAAAGUCUGUAAUCAUUUUAAGGGUA | 0.96 |
| GUUAACGGUCAUAGGCCAUGGAAACUAGGAGCACCAUUUCGCUGCCAGUGAAGAAAUGAACAAUGAAAAUCUGGGCCAGGCAGGCAUCAAGAGAAAUAGUCUUGCGCUCAACCAGAAAGUCUGUAAUCAUUUUAAGGGUA | 1.04 |
| GUUAACGGUCAUAGGCCAGGGAAACUAGGAGCACCAUUUCGCUGCCAGUGAAGAAAUGAACAAAGAGAAUCUGGGCCAGGCAGGCAUCAAAAGAAAUAGUCUUGCGCUCAACCAGAAAGUCUGUAAUCAUUUUAAGGGUA | 1.1 |
| GUUAACGGUCAUAGGCCAUGGAAACUAGGAGCACCAUUUCGCUGCCAGUGAAGAAAUGAACAAAGAAAAUCUGGGCCAGGCAGGCAUCAAAAGAGAUAGUCUUGCGCUCAACCAGAAAGUCUGUAAUCGUUUUAAGGGUA | 2.42 |
| GUUAACGGUCUUAGGCCAUGGAAACUAGGAGCACCAUUUCGCUGCCAGUGUAGAAAUGAACAAAGAAAAUCUGGGCCAGGCAGGCAUCAAAAGAAAUAGUCUUGCGCUCAACCAGAAAGUCUGUAAUCAUUUUAAGGGUA | 0.87 |
| GUUAACGGUCAUAGGCCAUGGAAACUAGGAGCACCAUUUCGCUGCCAGUGAAGAAAUAAACAAAGAAAAUCUGGGCCAGGCAGGCAUCAAAAGAAAUAGUCUUGCGCUCAACCAGAAAGUCUGUAAUCACUUUAAGGGUA | 0.82 |
| GUUAACGGUCAUAGGCCAUGGAAACUAGGAGCACCAUUUCGCUGCCAGUGAAGAAAUGAACAAAGAAAACCUGGGCCAGGCAGGCAUCAAAAGAAAUAGUCUUGCGCUCAACCAGAAAGUCUGUAGUCAUUUUAAGGGUA | 0.96 |
| GUUAACGGUCAUAGGCCAUGGAAACUAGGAGCACCAUUUCGCUGCCAGUGAAGGAAUGAACAGAGAAAAUCUGGGCCAGGCAGGCAUCAAAAGAAAUAGUCUUGCGCUCAACCAGAAAGUCUGUAAUCAUUUUAAGGGUA | 1.55 |
| GUUAACGGUCAUAGGCCAUGGAAACUAGGAGCACCAUUUCGCUGCCAGUGAAGAAAUGAACAAAGAAAAUCUGGGCCUGGCAGGCAUCAAAAGAAAUAGUCUUGCGCGCAACCAGAAAGUCUGUAAUCAUUUUAAGGGUA | 0.01 |
| GUUAACGGUCAUAGGCCAUGGAAACUAGGAGCACCAUUUCGCUGCCAGUGAAGAAAUGAACAAAGAAAAUCUGGGCCAGGCAGGCAACAAAAGAAAUAGUCUUGCGCUCAACCAGAAAGCCUGUAAUCAUUUUAAGGGUA | 1.28 |
| GUUAACGGUCAUAGGCCAUGGAAACUAGGAGCACCAUUUCGCUGCCAGUGAAGAAAUGAACAAAGAAAAUCUGGGCCAGGCAGGCAUCAAAAGAGAUAGUCUUGCGCUCAACCAGAAGGUCUGUAAUCAUUUUAAGGGUA | 0.75 |
| GUUACCGGUCAUAGGCCAUGGAAACUAGGAGCACCUUUUCGCUGCCAGUGAAGAAAUGAACAAAGAAAAUCUGGGCCAGGCAGGCAUCAAAAGAAAUAGUCUUGCGCUCAACCAGAAAGUCUGUAAUCAUUUUAAGGGUA | 1.59 |
| GUUAAUGGUCAUAGGCCAUGGAAACUAGGAGCACCAUUUCGCUGCCAGUGAAGAAAUGAACAAAGAAAAUCUGGGCCAGGCAGGCAUCAAAAGAAAUAGCCUUGCGCUCAACCAGAAAGUCUGUAAUCAUUUUAAGGGUA | 1.18 |
| GUUAACGGUCAUAGGCCAUGGAAACUAGGAGCACCAUUUCGCUGCCAGUGAAGAAAUGAACAAAGAAAAUCUGGGCCAGGCAGGCAUCAAAAGAAAUAGCCUUGCGCUCAACCAGAAAGUCUGAAAUCAUUUUAAGGGUA | 2.17 |
| GUUAACGGUCAUAGGCCAUGGAAACUAGGAGCACCAUUUCGCUGCCAGUGAAGAAAUGAACAAAGAAAAUCCGGGCCAGGCAGGCAUCAAAAGAGAUAGUCUUGCGCUCAACCAGAAAGUCUGUAAUCAUUUUAAGGGUA | 0.35 |
| GUUAACGGUCAUAGGCCAUGGAAACUAGGAGCACCAUUUCGCUGCCAGUGACGAAAUGAACAAGGAAAAUCUGGGCCAGGCAGGCAUCAAAAGAAAUAGUCUUGCGCUCAACCAGAAAGUCUGUAAUCAUUUUAAGGGUA | 1.38 |
| GUUAACGGUCAUGGGCCAUGGAAACUAGGAGCACCAUUUCGCUGCCAGUGAAGAAAUGAACAAAGAAAAUCUGGGCCAGGCAGGCAUCAAAAGAAAUAGUCUUGCGCGCAACCAGAAAGUCUGUAAUCAUUUUAAGGGUA | 0 |
| GUUAACGGUCAUAGGCCAUGGAAACUAGGAGCACCAUUUCGCUGCCAGUGAAGAAAUGAACAAAGAAAAUCAGGGCCAGGCAGGCAUCAAAAGAAAUAGUCUUGCGCUCCACCAGAAAGUCUGUAAUCAUUUUAAGGGUA | 0.06 |

| Variant | self-cleavage |
| --- | --- |
| GUUAACGGUCAUAGGCCAUGGAAACUAGGAGCACCAUUUCGCUGCCAGUGAAGAUAUGAACGAAGAAAAUCUGGGCCAGGCAGGCAUCAAAAGAAAUAGUCUUGCGCUCAACCAGAAAGUCUGUAAUCAUUUUAAGGGUA | 0.23 |
| GUUAACGGUCAUAGGCCAUGGAAACUAGGAGCACCAUUUCGCUGCCAGUGAAGAAAUGAACAAAAAAAAUCUGGGCCAGGCAGGCAUCAAAAGAAAUAGUCUUGCGCUCCACCAGAAAGUCUGUAAUCAUUUUAAGGGUA | 0.19 |
| GUUAACGGUCAUAGGCCAUGGAAACUAGGAGCACCAUUUCGCUGCUAGUGAAGAAAUGAACAAAGAUAAUCUGGGCCAGGCAGGCAUCAAAAGAAAUAGUCUUGCGCUCAACCAGAAAGUCUGUAAUCAUUUUAAGGGUA | 2.2 |
| GUUAACGGUCAUAGGCCAUGGAAACUAGGAGCACCAUUUCGCUGCCAGUGAAGAAAUGAACAAAGAAAAUCUGGGCCAGGCAGACAUCAAAAGAAAUAGUCAUGCGCUCAACCAGAAAGUCUGUAAUCAUUUUAAGGGUA | 2.02 |
| GUUGACGGUCAUAGGCCAUGGAAACUAGGAGCACCAUUUCGCUGCCAGUGAAGAAAUGAACAAAGAAAAUCUGGGCCAGGCAGGCAUCAAAAGAAAUAGUCUUGCGCUCGACCAGAAAGUCUGUAAUCAUUUUAAGGGUA | 0.4 |
| GUUAACGGUCAUAGGCCAUGGAAGCUAGGAGCACCAUUUCGCUGCCAGUGAAGAAAUGAACAAAGAAAAUCUGGGCCAGGUAGGCAUCAAAAGAAAUAGUCUUGCGCUCAACCAGAAAGUCUGUAAUCAUUUUAAGGGUA | 0.64 |
| GUUAACGGUCAUAGGCCAUGGAAACUAGGAGCACCAUUUCGCUGCCAGUGAAGAAAUGAACAAAGAAAAUCCGGGCCGGGCAGGCAUCAAAAGAAAUAGUCUUGCGCUCAACCAGAAAGUCUGUAAUCAUUUUAAGGGUA | 0.25 |
| GUUAACGGUCAUAGGCCAUGGAAACAAGGAGCACCAUUUCGCUGCCAGUGAAGAAAUGAACAAAGAAAAUCUGGGCCAGGCAGGCAUCAAAAGAAAUAGUCUUGCGCUCAACCAUAAAGUCUGUAAUCAUUUUAAGGGUA | 0.13 |
| GUUAACGGUCAUAGGCCAUGGAAACUAGGAGCACCAUUUCGCUGCCAGUGAAGAAAAGAACAGAGAAAAUCUGGGCCAGGCAGGCAUCAAAAGAAAUAGUCUUGCGCUCAACCAGAAAGUCUGUAAUCAUUUUAAGGGUA | 1.7 |
| GUUAACGGUCAUAGGCCAUGGAAACUAGGAGCACCAUUUCGCUGCCAGUGAAGAAAUGAACAAAGAAGAUCUGGGCCAGGCAGGCAUCAAAAGAAAUAGUAUUGCGCUCAACCAGAAAGUCUGUAAUCAUUUUAAGGGUA | 0.19 |
| GUUAACGGUCAUAGGCCAUGGGAACUAGGAGCACCAUUUCGCUGCCAGUGAAGAAAUGAACAAAGAAAAUCUGGGCCAGGCAGGCAUCAAAAGAAAUAGUCUUGCGCUCAACCAGAAAGUCUGUAAGCAUUUUAAGGGUA | 1.34 |
| GUUAACGGUCAUAGGCCAUGGAAACUAGGAGCACCAUUUCGCUGCCAGUGAAGAAAUGAACAAAGAAAAUCAGGGCCAGGCAGGCAUCAAAAGAAAUAGUCUUGCGCACAACCAGAAAGUCUGUAAUCAUUUUAAGGGUA | 0.04 |
| GUUAACGGUCAUCGGCCAUGGAAACUAGGAGCACCAUUUCGCUGCCAGUGAAGAAAUGAACAAAGAAAAUCUGGGCCAGGCAGGCAUCAAAAGAAAUAGUCUUGCGCUCAACCAGGAAGUCUGUAAUCAUUUUAAGGGUA | 0.96 |
| GUUAACGGUCAUAGGCCAUGGAAACUAGGAGCACCAUUUCGCUGCCGGUGAAGAAAUGAACAAAGAAAAUCUGGGCCAGGCAGGCAUCAAAAGAAAUAGUCUUGCGCUCAACCAGAAGGUCUGUAAUCAUUUUAAGGGUA | 0.41 |
| GUUAACGGUCAUAGGCCAUGGAAACUAGGAGCACCAUUUCGCUGCCAGUGAGGAAAUGAACAAAGAAAAUCUGGGCCAGGCAGGCAUCAAAAGAAAUAGUCUUACGCUCAACCAGAAAGUCUGUAAUCAUUUUAAGGGUA | 0.04 |
| GUUAACGGUCAUAGGCCAUGGAAACUAGGAGCACCAUUUCGCUGCCAGUGAAGAAAUGAACAAAGAAAAUCUGGGCCAGGCAGGCAUCAAAAGAAAUAGUCUUGCGCUCAACCAGAAAGGCUGUAAUCAUUUUAAGGGAA | 1.61 |
| GUUAACGGUCAUAGGCCAUGGAGACUAGGAGCACCAUUCCGCUGCCAGUGAAGAAAUGAACAAAGAAAAUCUGGGCCAGGCAGGCAUCAAAAGAAAUAGUCUUGCGCUCAACCAGAAAGUCUGUAAUCAUUUUAAGGGUA | 1.54 |
| GUUGACGGUCAUAGGCCAUGGAAACUAGGAGCACCAUUUCGCUGCCAGUGAAGAAGUGAACAAAGAAAAUCUGGGCCAGGCAGGCAUCAAAAGAAAUAGUCUUGCGCUCAACCAGAAAGUCUGUAAUCAUUUUAAGGGUA | 1.02 |
| GUUAACGGUCAUAGGCCAUGGAAGCUAGGAGCACCAUUUCGCUGCCAGUGAAGAAAUGAACAAGGAAAAUCUGGGCCAGGCAGGCAUCAAAAGAAAUAGUCUUGCGCUCAACCAGAAAGUCUGUAAUCAUUUUAAGGGUA | 1.01 |
| GUUAACGGUCAUAGGCCAUGGAAACUAGGAGCACCGUUUCGCUGCCAGUGAAGAAAUGAACAAAGAAAAUCUGGGCCAGGCAGGCAUCAAAAGAAAUAGUCUUGCGCUCAACCAGAAAGUCUGUAAUCAUUUCAAGGGUA | 2.18 |
